The source of these data is patent US20070099837A1.

The assay concerns the target human zFGF5 (human) (UniProt O76093). Put plainly: cell-based or functional assay.

Chain of human zFGF5 (human) (O76093 28-207): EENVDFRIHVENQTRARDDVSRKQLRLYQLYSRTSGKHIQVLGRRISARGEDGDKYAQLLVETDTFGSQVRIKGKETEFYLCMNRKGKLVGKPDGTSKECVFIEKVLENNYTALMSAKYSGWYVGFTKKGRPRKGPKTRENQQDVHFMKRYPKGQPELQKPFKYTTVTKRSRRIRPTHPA

For “FGFR3α-IIIc/Fc soluble receptor (Fc fusion)”, the Cell Proliferation (percent of control), BAF3 cells expressing FGFR3α-IIIc with zFGF5, soluble receptor at 0 fold-excess (percent of control) was 100; the Cell Proliferation (percent of control), BAF3 cells expressing FGFR3α-IIIc with zFGF5, soluble receptor at 0.8 fold-excess (percent of control) turned out to be 85; the Cell Proliferation (percent of control), BAF3 cells expressing FGFR3α-IIIc with zFGF5, soluble receptor at 1.6 fold-excess (percent of control) is 66; the Cell Proliferation (percent of control), BAF3 cells expressing FGFR3α-IIIc with zFGF5, soluble receptor at 3.2 fold-excess (percent of control) amounted to 37. This substance returned a Cell Proliferation (percent of control), BAF3 cells expressing FGFR3α-IIIc with zFGF5, soluble receptor at 6.3 (printed 6..3) fold-excess (percent of control) of 5; a Cell Proliferation (percent of control), BAF3 cells expressing FGFR3α-IIIc with zFGF5, soluble receptor at 12.5 fold-excess (percent of control) of 1; a Cell Proliferation (percent of control), BAF3 cells expressing FGFR3α-IIIc with zFGF5, soluble receptor at 25 fold-excess (percent of control) of 0.2; a Cell Proliferation (percent of control), BAF3 cells expressing FGFR3α-IIIc with zFGF5, soluble receptor at 50 fold-excess (percent of control) of 0. The substance further returned a Cell Proliferation (percent of control), BAF3 cells expressing FGFR3α-IIIc with zFGF5, soluble receptor at 100 fold-excess (percent of control) of 0.
Regarding “FGFR2α-IIIb/Fc soluble receptor (from UniProt P21802 22-378) (Fc fusion)”, the Cell Proliferation (percent of control), BAF3 cells expressing FGFR3α-IIIc with zFGF5, soluble receptor at 0 fold-excess (percent of control) came to 100; the Cell Proliferation (percent of control), BAF3 cells expressing FGFR3α-IIIc with zFGF5, soluble receptor at 62.5 fold-excess (percent of control) stood at 101; the Cell Proliferation (percent of control), BAF3 cells expressing FGFR3α-IIIc with zFGF5, soluble receptor at 125 fold-excess (percent of control) stood at 90; the Cell Proliferation (percent of control), BAF3 cells expressing FGFR3α-IIIc with zFGF5, soluble receptor at 250 fold-excess (percent of control) was 91. The Cell Proliferation (percent of control), BAF3 cells expressing FGFR3α-IIIc with zFGF5, soluble receptor at 500 fold-excess (percent of control) worked out at 101 and the Cell Proliferation (percent of control), BAF3 cells expressing FGFR3α-IIIc with zFGF5, soluble receptor at 1000 fold-excess (percent of control) turned out to be 99.
